From PMC7057348

Experiments:
Test in all cases: SPR; Biacore T200; omalizumab, Fabs and scFv immobilised on CM5 chips by amine coupling; IgE-Fc injected in a twofold dilution series (100-0.4 nM), 20 µl/min, 240 s association, 900 s dissociation; 25°C; 20 mM HEPES pH 7.4, 150 mM NaCl, 0.005% (v/v) surfactant P20; biphasic model with one higher-affinity and one lower-affinity interaction
[1] = target: FabXol3 (omalizumab-derived Ser81Arg, Gln83Arg, Leu158Pro light-chain mutant Fab)
[2] = target: FabXol2 (omalizumab-derived Ser81Arg, Gln83Arg light-chain mutant Fab)
[3] = target: scFvXol (omalizumab-derived scFv)
[4] = target: Omalizumab (intact anti-IgE monoclonal IgG1 antibody)
[5] = target: FabXol (wild-type omalizumab Fab)

With “IgE-Fc (Fc region of immunoglobulin E) (domain or fragment)” the koff1 (biphasic model) [1] was 0.00033 s⁻¹, the koff2 (biphasic model) [1] was 0.009 s⁻¹ and the kon1 (biphasic model) [1] was 970000 M⁻¹ s⁻¹. It also gave a kon2 (biphasic model) [1] of 270000 M⁻¹ s⁻¹, a koff1 (biphasic model) [2] of 0.00045 s⁻¹ and a koff2 (biphasic model) [2] of 0.011 s⁻¹. The kon1 (biphasic model) [2] was 510000 M⁻¹ s⁻¹, the kon2 (biphasic model) [2] was 330000 M⁻¹ s⁻¹ and the koff1 (biphasic model) [3] was 0.00029 s⁻¹. For the same substance, the koff2 (biphasic model) [3] was 0.0087 s⁻¹, the kon1 (biphasic model) [3] was 690000 M⁻¹ s⁻¹ and the kon2 (biphasic model) [3] was 310000 M⁻¹ s⁻¹. It also gave a koff1 (biphasic model) [4] of 0.0007 s⁻¹, a koff2 (biphasic model) [4] of 0.012 s⁻¹ and a kon1 (biphasic model) [4] of 330000 M⁻¹ s⁻¹. For the same substance, the kon2 (biphasic model) [4] was 290000 M⁻¹ s⁻¹, the koff1 (biphasic model) [5] was 0.00056 s⁻¹ and the koff2 (biphasic model) [5] was 0.012 s⁻¹. For the same substance, the kon1 (biphasic model) [5] was 570000 M⁻¹ s⁻¹ and the kon2 (biphasic model) [5] was 440000 M⁻¹ s⁻¹.
